In article PMC5499601 (Nucleic Acids Research, 2017):

Key:
Experiment in all cases: EMSA
BsSpo0J Q61A = molecular target: T1, BsSpo0J Q61A (UniProt P26497 1-282, Q61A)
T1 sequence: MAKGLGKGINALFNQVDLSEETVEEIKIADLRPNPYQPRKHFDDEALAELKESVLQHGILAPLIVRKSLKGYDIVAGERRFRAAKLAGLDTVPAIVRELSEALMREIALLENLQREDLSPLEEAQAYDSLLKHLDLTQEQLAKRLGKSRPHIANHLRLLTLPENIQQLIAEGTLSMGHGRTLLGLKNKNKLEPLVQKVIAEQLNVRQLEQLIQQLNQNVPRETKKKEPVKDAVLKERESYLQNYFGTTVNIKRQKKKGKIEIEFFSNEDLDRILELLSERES

BsSpo0J Q140A = molecular target: T2, BsSpo0J Q140A (UniProt P26497 1-282, Q140A)
T2 sequence: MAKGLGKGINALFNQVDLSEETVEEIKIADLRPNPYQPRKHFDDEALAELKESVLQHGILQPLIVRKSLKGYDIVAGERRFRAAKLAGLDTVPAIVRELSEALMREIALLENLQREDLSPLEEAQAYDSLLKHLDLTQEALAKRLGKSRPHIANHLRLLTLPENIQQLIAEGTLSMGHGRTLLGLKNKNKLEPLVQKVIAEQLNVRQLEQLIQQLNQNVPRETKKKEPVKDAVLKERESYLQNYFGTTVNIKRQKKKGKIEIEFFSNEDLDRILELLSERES

BsSpo0J L60E = molecular target: T3, BsSpo0J L60E (UniProt P26497 1-282, L60E)
T3 sequence: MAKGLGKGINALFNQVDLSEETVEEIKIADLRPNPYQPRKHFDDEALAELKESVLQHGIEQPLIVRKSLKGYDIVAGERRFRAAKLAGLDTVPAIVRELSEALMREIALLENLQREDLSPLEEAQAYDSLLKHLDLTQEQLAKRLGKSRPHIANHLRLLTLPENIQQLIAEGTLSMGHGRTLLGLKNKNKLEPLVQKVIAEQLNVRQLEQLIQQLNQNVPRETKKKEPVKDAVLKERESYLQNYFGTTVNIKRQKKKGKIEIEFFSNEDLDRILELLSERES

BsSpo0J V75A = molecular target: T4, BsSpo0J V75A (UniProt P26497 1-282, V75A)
T4 sequence: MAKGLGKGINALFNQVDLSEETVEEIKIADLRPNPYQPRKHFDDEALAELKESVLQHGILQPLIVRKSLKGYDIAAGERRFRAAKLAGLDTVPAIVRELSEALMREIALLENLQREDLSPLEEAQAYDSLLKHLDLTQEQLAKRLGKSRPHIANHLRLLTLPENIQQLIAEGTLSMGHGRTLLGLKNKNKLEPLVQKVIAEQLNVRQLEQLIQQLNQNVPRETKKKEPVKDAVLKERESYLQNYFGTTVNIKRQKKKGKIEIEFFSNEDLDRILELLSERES

BsSpo0J R79A = molecular target: T5, BsSpo0J R79A (UniProt P26497 1-282, R79A)
T5 sequence: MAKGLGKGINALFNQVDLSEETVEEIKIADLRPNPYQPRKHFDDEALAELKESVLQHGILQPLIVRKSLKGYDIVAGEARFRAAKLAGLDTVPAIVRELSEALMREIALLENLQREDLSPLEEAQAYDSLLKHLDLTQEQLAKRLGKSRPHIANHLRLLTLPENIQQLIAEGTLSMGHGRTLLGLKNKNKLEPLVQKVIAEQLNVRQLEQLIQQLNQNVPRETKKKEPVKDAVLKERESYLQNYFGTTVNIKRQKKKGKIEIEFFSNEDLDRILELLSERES

BsSpo0J F81A = molecular target: T6, BsSpo0J F81A (UniProt P26497 1-282, F81A)
T6 sequence: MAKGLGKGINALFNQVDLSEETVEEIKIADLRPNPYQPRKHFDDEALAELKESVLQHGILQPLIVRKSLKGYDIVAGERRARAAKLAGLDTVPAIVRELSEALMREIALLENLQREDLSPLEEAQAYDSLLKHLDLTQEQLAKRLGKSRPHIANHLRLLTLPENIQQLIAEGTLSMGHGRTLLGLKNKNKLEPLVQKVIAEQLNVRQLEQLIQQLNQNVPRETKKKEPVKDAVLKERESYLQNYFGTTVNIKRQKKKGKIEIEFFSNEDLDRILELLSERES

BsSpo0J N112S = molecular target: T7, BsSpo0J N112S (UniProt P26497 1-282, N112S)
T7 sequence: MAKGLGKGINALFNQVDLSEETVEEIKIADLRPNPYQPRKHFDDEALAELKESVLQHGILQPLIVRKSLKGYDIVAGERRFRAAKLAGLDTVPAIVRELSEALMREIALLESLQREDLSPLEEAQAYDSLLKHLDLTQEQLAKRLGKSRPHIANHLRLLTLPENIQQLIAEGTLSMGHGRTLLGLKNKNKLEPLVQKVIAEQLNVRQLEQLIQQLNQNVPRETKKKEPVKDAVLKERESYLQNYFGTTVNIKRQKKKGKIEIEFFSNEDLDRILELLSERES

BsSpo0J R82A = molecular target: T8, BsSpo0J R82A (UniProt P26497 1-282, R82A)
T8 sequence: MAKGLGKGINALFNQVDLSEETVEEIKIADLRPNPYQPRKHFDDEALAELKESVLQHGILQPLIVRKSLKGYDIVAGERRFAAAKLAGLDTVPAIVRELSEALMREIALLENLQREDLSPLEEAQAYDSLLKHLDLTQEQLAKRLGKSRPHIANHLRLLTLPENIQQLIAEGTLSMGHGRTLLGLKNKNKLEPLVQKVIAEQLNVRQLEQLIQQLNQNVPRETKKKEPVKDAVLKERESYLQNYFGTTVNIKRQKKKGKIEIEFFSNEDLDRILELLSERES

BsSpo0J R105E = molecular target: T9, BsSpo0J R105E (UniProt P26497 1-282, R105E)
T9 sequence: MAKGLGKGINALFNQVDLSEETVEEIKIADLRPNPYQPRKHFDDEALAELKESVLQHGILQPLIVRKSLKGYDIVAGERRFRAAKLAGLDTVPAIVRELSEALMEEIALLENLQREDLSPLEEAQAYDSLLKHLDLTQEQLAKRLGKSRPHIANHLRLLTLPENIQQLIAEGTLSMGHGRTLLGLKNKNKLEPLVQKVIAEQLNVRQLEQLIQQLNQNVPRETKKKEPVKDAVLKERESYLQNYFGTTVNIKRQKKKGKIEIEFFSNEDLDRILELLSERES

Measured: binding result

B1: 24-bp parS (dsDNA)
DNA 1: AGAATGTTCCACGTGAAACAAAGA
DNA 2: TCTTTGTTTCACGTGGAACATTCT
binds: all assays above
